What was measured:
cbz-FAF[125I]Y-NH2 = system: T1, cbz-FAF[125I]Y-NH2
T1 sequence: FAFY

[1] = target: rat CNS myelin (spinal cord myelin membrane fraction); test: cell-based or functional assay
[2] = target: 250 kD CNS myelin associated inhibitory protein from rat CNS myelin (rat); test: cell-based or functional assay
[3] = target: 35 kD CNS myelin associated inhibitory protein from rat CNS myelin (rat); test: cell-based or functional assay
[4] = target: CNS myelin protein liposomes (total rat CNS myelin protein reconstituted in lipid vesicles); test: cell-based or functional assay
[5] = target: 250 kD CNS myelin associated inhibitory protein from rat CNS myelin (rat); test: solid phase radioimmunoassay on liposomes with gel-extracted protein, 125I goat anti-mouse, background subtracted
[6] = target: 35 kD CNS myelin associated inhibitory protein from rat CNS myelin (rat); test: as above
[7] = target: rat CNS myelin (spinal cord myelin membrane fraction); test: solid phase radioimmunoassay, antigen-coated wells, hybridoma supernatant, 125I goat anti-mouse, background subtracted
[8] = target: rat CNS myelin, trypsin-treated; test: as above
[9] = target: rat PNS myelin (sciatic nerve myelin membrane fraction); test: as above

tissue-type plasminogen activator (tPA), sequence (P00750 36-562): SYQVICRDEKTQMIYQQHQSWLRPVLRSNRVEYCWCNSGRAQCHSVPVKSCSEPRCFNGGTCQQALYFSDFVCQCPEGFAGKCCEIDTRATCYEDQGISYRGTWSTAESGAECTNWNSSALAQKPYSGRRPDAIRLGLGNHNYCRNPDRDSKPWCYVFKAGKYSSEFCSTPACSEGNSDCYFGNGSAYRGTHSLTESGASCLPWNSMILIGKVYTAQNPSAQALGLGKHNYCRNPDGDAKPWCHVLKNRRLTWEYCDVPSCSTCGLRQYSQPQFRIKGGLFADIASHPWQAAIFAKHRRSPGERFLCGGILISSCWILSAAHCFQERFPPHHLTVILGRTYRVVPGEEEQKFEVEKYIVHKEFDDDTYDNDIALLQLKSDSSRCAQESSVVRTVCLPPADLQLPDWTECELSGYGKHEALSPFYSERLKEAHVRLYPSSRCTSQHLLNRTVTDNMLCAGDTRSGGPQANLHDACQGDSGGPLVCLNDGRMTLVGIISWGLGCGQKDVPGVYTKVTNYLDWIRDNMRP

## C6 plasma membrane associated metalloendoprotease (rat C6 glioblastoma cells)
cbz-FAF[125I]Y-NH2
  Amount necessary to degrade 50% of substrate in 30 min [µg], total C6 PM protein: 1.5 µg
  cbz-FAF[125I]Y-NH2 degradation by the plasma membrane fraction (5 µg): 2.7 nmol/min

## C6 plasma membrane associated metalloendoprotease (rat C6 glioblastoma cells) (enzyme)
[1]
  3H-Thymidine Incorporation (%) of 3T3 cells on CNS myelin preincubated with C6 PM (untreated CNS myelin: 30): 83%
  3T3 Cell Spreading (%) on CNS myelin preincubated with C6 PM (untreated CNS myelin: 15): 52%

## cathepsin D
cbz-FAF[125I]Y-NH2
  Amount necessary to degrade 50% of substrate in 30 min [µg], pH 4.0: 0.005 µg
  Amount necessary to degrade 50% of substrate in 30 min [µg], pH 7.4: > 100 µg

## collagenase
cbz-FAF[125I]Y-NH2
  Amount necessary to degrade 50% of substrate in 30 min: 3 µg

## monoclonal antibody IN-1
[2]
  3T3 Spreading (µm^2) on 250 kD liposomes made from IN-1-precipitated protein, Protocol 2: 245 µm^2
[3]
  3T3 Spreading (µm^2) on 35 kD liposomes made from IN-1-precipitated protein, Protocol 2: 270 µm^2
[4]
  3T3 spreading value on CNS lipos. preadsorbed with IN-1 (no antibody: 1.11): 2030 µm^2
  % inhibition of 3T3 spreading on CNS lipos. preadsorbed with IN-1 (no antibody: 45): 10%
  % inhibition of C6 spreading on CNS lipos. preadsorbed with IN-1, 0.3 mM 1,10-phenanthroline (no antibody: 46): 11%
  C6 spreading value on CNS lipos. preadsorbed with IN-1, 0.3 mM 1,10-phenanthroline (no antibody: 1.35): 2250 µm^2
[1]
  3T3 Spreading (µm^2) on liposomes of IN-1-immunoprecipitated myelin protein, Protocol 1: 218 µm^2
  3T3 Spreading (µm^2) on liposomes of IN-1-immunoprecipitated myelin protein, Protocol 2: 215 µm^2
[5]
  Amount of Antibody Bound (cpm of 125I-Labeled Goat Anti-Mouse): 250 cpm
[6]
  Amount of Antibody Bound (cpm of 125I-Labeled Goat Anti-Mouse): 350 cpm
[7]
  Amount of Antibody Bound (cpm of 125I-Labeled Goat Anti-Mouse): 550 cpm
[8]
  Amount of Antibody Bound (cpm of 125I-Labeled Goat Anti-Mouse): 25 cpm
[9]
  Amount of Antibody Bound (cpm of 125I-Labeled Goat Anti-Mouse): 80 cpm

## tissue-type plasminogen activator (tPA)
cbz-FAF[125I]Y-NH2
  Amount necessary to degrade 50% of substrate in 30 min: > 100 µg

## trypsin
cbz-FAF[125I]Y-NH2
  Amount necessary to degrade 50% of substrate in 30 min: 0.3 µg

## urokinase (uPA)
cbz-FAF[125I]Y-NH2
  Amount necessary to degrade 50% of substrate in 30 min: > 100 µg

From US6960559
